Experimental data: paper PMC9239190
Changes are numbered by the printed parent chain.

Tests used:
[1] = molecular target: T1, AdpA (Streptomyces coelicolor) (UniProt Q9L062); experiment: EMSA; conditions: EMSA: 20 mM Tris-HCl, 2 mM EDTA, 20 mM KCl, 0.5 mM DTT, pH 8.0, 30 C 20 min, 16.5-22 nM probe; FP: 10 mM Tris-HCl, 75 mM NaCl, pH 7.5, 37 C 15 min, 1 nM FAM …
T1 sequence: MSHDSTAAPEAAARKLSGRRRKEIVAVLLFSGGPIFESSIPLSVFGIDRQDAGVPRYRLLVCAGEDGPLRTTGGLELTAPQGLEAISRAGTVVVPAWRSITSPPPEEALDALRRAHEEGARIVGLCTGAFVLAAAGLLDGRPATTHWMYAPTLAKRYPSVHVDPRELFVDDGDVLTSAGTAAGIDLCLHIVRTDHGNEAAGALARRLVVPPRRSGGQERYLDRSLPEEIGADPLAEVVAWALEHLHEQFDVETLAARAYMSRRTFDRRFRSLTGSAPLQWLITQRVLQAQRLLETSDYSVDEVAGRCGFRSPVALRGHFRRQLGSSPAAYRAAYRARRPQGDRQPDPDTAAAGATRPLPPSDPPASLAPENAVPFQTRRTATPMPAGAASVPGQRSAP

[2] = molecular target: T2, AdpA C62S C62S (Streptomyces coelicolor) (UniProt Q9L062); experiment: EMSA; conditions: EMSA: 20 mM Tris-HCl, 2 mM EDTA, 20 mM KCl, 0.5 mM DTT, pH 8.0, 30 C 20 min, 16.5-22 nM probe; FP: 10 mM Tris-HCl, 75 mM NaCl, pH 7.5, 37 C 15 min, 1 nM FAM …
T2 sequence: T1 sequence with C62S

Row | Sequence | binding [1] | binding [2]
1 | GCACTCCAGTCGGTTACCCAGCCCATACCGGCGCCGTCCTCTCCCGAATCGAGGCTCCCCCACGGCGGCAGCGGCATATTCACCGCCGCCAGTTGAGGACGTTACGGAAGGTGGGCACAGCGCAACACCCCCTTCGGGCCCAATCTTGAATGGCCCGAACGGACTATGGGTAAGCGGCAGATCACCCGGGGGAGTGAGCTGGCGACATGCGCGACGATCCCGACATTCAGGTCATCTCTGTTGCGCCACAACGGACACCGATTGACACACGAGGCGGATTCGGA (double strand) [PwblA probe] | binds | binds
2 | ACACATCCCGCATCGGTGATTACATGGACACGTCCCAATAAGTTGAATCTCATCTGCGCCCCCGTCGAGATTCTCCGTCTCCTGGGGGCGACAATAACAGGCCTACTCAACAGATTTCAATGTGCTTGCCGTCACAAGCGATCTCCTATTGATCAAAAATTAATCAGTGCAGCGAGCTGCACTGATTAATTTTTGCTGGATTTTACCGAGAGGCAGTGGTCGAGGCTTCCGAATCAATAGAATCTGGCATTCCTGATACGGCTGGGTCC (double strand) [PactII-4 probe] | binds | –
